Reference: US20260374878 (published 2026)

Molecular target: T1, CLL1 (expressed on K562-CLL1 cells) (human, UniProt Q5QGZ9)
T1 chain: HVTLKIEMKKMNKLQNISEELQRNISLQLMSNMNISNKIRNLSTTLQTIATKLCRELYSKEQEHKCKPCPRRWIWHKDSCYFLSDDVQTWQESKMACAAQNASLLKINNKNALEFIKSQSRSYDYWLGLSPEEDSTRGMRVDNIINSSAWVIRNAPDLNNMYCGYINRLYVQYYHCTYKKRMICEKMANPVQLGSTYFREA
Assay: FACS, K562-CLL1 cells, room temperature, bivalent Fc fusion

B1: CLL1-VHH-16-hFc (antibody)
chain 1: DVQLQESGGGLVQPGGSLRLSCAASGFTFGSYDMTWVRQAPGKGPEWVSGINSGGSSTYYADSVKGRFTISRDNAKNTLYLQMNSLKPEDTAVYYCATIDRLSTVVAGTYQPSEEYDYWGQGTQVTVSS
chain 2: not shown
With B1 the Kd was 5 nM.
